Data on six molecules can be found in patent US20130295021A1 (published 2013).

The EC50 is the midpoint of the concentration-response curve. Broadly, the EC50 (read off the curve) is the concentration needed to bring the measured effect to its halfway point.

For experiment [1], the target named is T1, His-tagged tau domain II (AA 136-258 of hTau40) (human, UniProt P10636 387-575).
T1 construct: Expressed in E. coli BL21 (DE3) and purified on Ni-NTA
As to the kind of experiment: Western blot. The procedure: (§1) DNA fragments, synthesized using GeneArt® (Invitrogen), which encode each Tau domain with 6×His tagged at the N-terminus were cloned into the pRSET-A expression vector (Invitrogen), were transfected into E. Coli BL21 (DE3) (New England Biolabs). The expressions of the His-tagged Tau domains were induced by 0.5 mM IPTG for six hours before bacteria were lysed with lysozyme with sonication. The lysate was boiled for five minutes before being further purified with Ni-NTA Superflow Columns (Qiagen). The eluted His-tagged Tau domains were coated on ELISA plates or loaded on polyacrylamide gel for Western Blot. These sequentially overlapping tau domain polypeptides cover the full length of hTau40 (FIG. 13A).
Background: Immunoblotting shows a protein as a band on a membrane.

The target of experiment [2] is T2, His-tagged tau domain III (AA 235-373 of hTau40) (human, UniProt P10636 552-690).
T2 construct: Expressed in E. coli BL21 (DE3) and purified on Ni-NTA
T2 sequence (P10636 other isoform, or with tags, fused parts or gaps): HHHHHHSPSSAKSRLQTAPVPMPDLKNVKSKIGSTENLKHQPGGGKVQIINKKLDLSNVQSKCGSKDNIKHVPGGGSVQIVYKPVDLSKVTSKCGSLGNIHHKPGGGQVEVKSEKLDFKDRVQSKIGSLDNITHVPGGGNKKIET
Briefly: Western blot. The procedure:
as §1

In experiment [3] the target is T3, His-tagged tau domain IV (AA 355-441 of hTau40) (human, UniProt P10636 672-758).
T3 construct: Expressed in E. coli BL21 (DE3) and purified on Ni-NTA
T3 sequence (P10636 other isoform, or with tags, fused parts or gaps): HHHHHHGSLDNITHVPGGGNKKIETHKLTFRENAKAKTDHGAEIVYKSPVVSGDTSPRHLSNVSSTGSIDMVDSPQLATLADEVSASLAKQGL
As to the kind of experiment: Western blot. The procedure: as §1

The target of experiment [4] is T4, bovine serum albumin (BSA) (UniProt P02769 25-607).
T4 construct: Control antigen
T4 sequence (P02769 25-607 limits assumed): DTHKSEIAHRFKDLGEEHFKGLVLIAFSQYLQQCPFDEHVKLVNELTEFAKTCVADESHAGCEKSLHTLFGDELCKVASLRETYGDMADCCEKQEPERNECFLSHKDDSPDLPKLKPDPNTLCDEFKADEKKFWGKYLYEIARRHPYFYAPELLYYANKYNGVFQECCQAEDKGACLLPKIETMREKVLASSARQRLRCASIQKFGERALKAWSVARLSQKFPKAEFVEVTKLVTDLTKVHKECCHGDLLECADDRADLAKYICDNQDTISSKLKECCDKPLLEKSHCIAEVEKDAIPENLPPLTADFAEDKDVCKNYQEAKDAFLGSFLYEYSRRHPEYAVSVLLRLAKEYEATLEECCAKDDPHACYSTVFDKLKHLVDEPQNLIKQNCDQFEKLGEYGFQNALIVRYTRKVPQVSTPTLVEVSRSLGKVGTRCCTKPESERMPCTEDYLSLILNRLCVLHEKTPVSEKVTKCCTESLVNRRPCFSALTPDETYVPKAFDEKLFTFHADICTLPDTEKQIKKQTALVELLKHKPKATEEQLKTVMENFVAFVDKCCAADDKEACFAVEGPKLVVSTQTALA
Briefly: direct ELISA, plates coated with BSA. The procedure: To validate tau as a recognized target of isolated antibodies direct ELISA assays were performed as described above. […] No binding is observed to BSA (FIG. 10).

The target in experiment [5] is T5, PHFTau, paired helical filaments containing pathologically phosphorylated tau filaments extracted from AD … (human, UniProt P10636-8 1-441, limits assumed, pathologically phosphorylated; sites not given).
T5 construct: Brain extract, aggregated and phosphorylated; also called pathologically modified tau isoforms
T5 sequence (P10636 other isoform, or with tags, fused parts or gaps limits assumed): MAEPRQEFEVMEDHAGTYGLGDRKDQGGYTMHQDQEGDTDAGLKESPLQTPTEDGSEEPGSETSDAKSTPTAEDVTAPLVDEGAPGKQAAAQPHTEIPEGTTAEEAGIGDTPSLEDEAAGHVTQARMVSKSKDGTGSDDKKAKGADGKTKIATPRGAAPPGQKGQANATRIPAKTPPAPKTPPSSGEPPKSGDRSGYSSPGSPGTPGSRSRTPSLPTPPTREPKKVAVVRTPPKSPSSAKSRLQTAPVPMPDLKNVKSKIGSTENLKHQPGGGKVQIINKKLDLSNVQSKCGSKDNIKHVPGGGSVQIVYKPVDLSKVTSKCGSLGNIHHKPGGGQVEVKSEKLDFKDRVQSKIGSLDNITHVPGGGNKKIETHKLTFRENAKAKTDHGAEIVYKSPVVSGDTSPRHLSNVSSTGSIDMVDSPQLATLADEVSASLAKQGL
Briefly: direct ELISA, PHFTau coated at 1:100; PHFTau coated at 1:100. The procedure: (§2) ELISA plates were coated with recombinant human tau (hTau40, 1 ug/ml), PHFTau (1:100) and control preparation (1:100), and incubated with varying antibody concentrations.

Experiment [6] deals with T6, recombinant human tau, isoform Tau-F of 441aa (hTau40) (human, UniProt P10636 1-758).
T6 construct: Bought from rPeptide (Bogart, USA); also called full-length tau; rTau
T6 sequence (P10636 other isoform, or with tags, fused parts or gaps limits assumed): as above
As to the kind of experiment: direct ELISA, hTau40 coated at 1 ug/ml; hTau40 coated at 1 ug/ml. The procedure: (§3) 96 well microplates (Costar, Corning, USA) were coated with recombinant Tau protein (hTau40, rPeptide, Bogart, USA) diluted to a concentration of 1 μg/ml in carbonate ELISA coating buffer (50 mM, pH9.6) at 4° C. over night. Non-specific binding sites were blocked for 2 hr at RT with PBS containing 2% BSA (Sigma, Buchs, Switzerland) and 0.5% Tween20. […] EC₅₀ values were estimated by a non-linear regression using GraphPad Prism software (San Diego, USA).
as §2

Experiment [7] has as its target T6, recombinant human tau, isoform Tau-F of …. Briefly: direct ELISA, hTau40 coated at 3 µg/ml. An excerpt: (§4) The EC₅₀ values were estimated by a non-linear regression using GraphPad Prism software.
Background: In an ELISA, binding on a coated surface is turned into a signal by an enzyme label.

Experiment [8] shares this target. As to the kind of experiment: direct ELISA, hTau40 coated at 3 µg/ml (legend of FIG. 7).
Excerpt: as §4

Experiment [9] has the same target. As to the kind of experiment: ELISA on recombinant tau (FIG. 15).
Experiment [10] has the same target. Briefly: ELISA on recombinant tau.
Experiment [11] deals with T7, peptide corresponding to amino acids 226-239 of human tau (226VAVVRpTPPKSPSSA239), cognate epitope of AT180 (human).
T7 peptide: VAVVR[pT]PPKSPSSA
Briefly: direct ELISA on coated peptide.

For experiment [12], the target named is T6, recombinant human tau, isoform Tau-F of …. As to the kind of experiment: direct ELISA, hTau40 coated at 1 µg/ml. The procedure: as §3, §4
Experiment [13] deals with T8, peptide corresponding to amino acids 333-346 of hTau40 with an additional C-terminal cysteine (human).
T8 peptide: GGGQVEVKSEKLDFC
Briefly: direct ELISA on coated peptide (legend of FIG. 5).

Experiment [14] addresses T6, recombinant human tau, isoform Tau-F of …. Briefly: direct ELISA, hTau40 coated at 1 µg/ml (legend of FIG. 2). The procedure: as §3, §4

Non-standard residues stand in square brackets, D forms with d. No end group written: not given here. pT = C[C@@H](OP(=O)(O)O)[C@H](N)C(=O)O

T1 sequence (P10636 other isoform, or with tags, fused parts or gaps): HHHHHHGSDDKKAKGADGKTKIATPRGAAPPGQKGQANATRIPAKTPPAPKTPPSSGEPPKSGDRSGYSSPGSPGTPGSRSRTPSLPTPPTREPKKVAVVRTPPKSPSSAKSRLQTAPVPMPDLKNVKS

B1: recombinant human tau antibody NI-105.4A3 (antibody, human IgG1, V domains shown)
VH: QVQLVESGGGAVQPGGSLRLSCAASGFTFSDYAMHWVRQAPGKGLQWVAVISYEGTYKYYADSVKGRFTISRDNSKNTLNLQMSSLRVEDTAVYFCVKARAFASGQRSTSTVPDYWGQGTLVTVSS
VL: SYELTQPPSVSVSPGQTARITCSGDALPKKYAYWYQQKSGQAPVLVIYEDNKRPSGIPERFSGSSSGTVATLTISGAQVDDEADYYCYSTDISGDLRVFGGGTKLTVL
For B1, the binding result in experiment [1], in [2], in [3] and in experiment [4] was “no binding” each time. Besides, the EC50 came out at 1.2 nM in [5] and 1.4 nM in [6].

B2: recombinant human tau antibody NI-105.24B2 (antibody, human IgG1, V domains shown)
VH: QVQLVQSGAEVKKPGASVKVSCKASGYTFVNYIIHWVRQAPGQGLEWMGIINPNGGNTSYAEKFQARVTLTSDTSTSTVYMDLSSLTSEDTAVYYCAVLSPSNPWGQGTTVTVSS
VL: SYELTQPPSVSVSPGQTAGITCSGDALPKQFVYWYQKKPGQAPVLLIYKDTERPSRIPERFSGSTSGTTVALTINGVQAEDEADYYCQSADRSGALWVFGGGTKLTVL
Take B2: the EC50 in experiment [7] is 6.6 nM; in experiment [8], 6 nM.

B3: ch4E4(N30Q), mouse IgG2a/lambda (antibody, V domains shown)
VH: EVQLVESGGGLVQPGGSLKLSCAASGFNFQISAIHWVRQASGKGLEWVGRIRSKSHNYATLYAASLKGRFTLSRDDSRNTAYLQMSSLQTEDMAVYYCTVLSANYDTFDYWGQGTLVTVSS
VL: SYELTQPPSVSVSPGQTARISCFGDTLPKQYTYWYQQKPGQAPVLVIYKDTERPSGIPERFSGSSSGTTVTLTISGVQAEDEADYYCLSADNSATWVFGGGTKVTVLG
notes: Produced in and purified from CHO cells; also called the modified antibody
For B3, in experiment [9], the “fold higher apparent binding affinity relative to the original, glycosylated antibody (ch4E4)” value was approximately 4 fold. Further, the “EC50 (read off the curve)” value in [10] is approximately 0.04 µg/mL.

B4: recombinant human tau antibody NI-105.4E4 (antibody, V domains shown)
VH: EVQLVESGGGLVQPGGSLKLSCAASGFNFNISAIHWVRQASGKGLEWVGRIRSKSHNYATLYAASLKGRFTLSRDDSRNTAYLQMSSLQTEDMAVYYCTVLSANYDTFDYWGQGTLVTVSS
VL: SYELTQPPSVSVSPGQTARISCFGDTLPKQYTYWYQQKPGQAPVLVIYKDTERPSGIPERFSGSSSGTTVTLTISGVQAEDEADYYCLSADNSATWVFGGGTKVTVL
As for B4, the binding result in experiment [11] is given as “no binding”; in [13], “binds”. The EC50 amounted to 2.4 nM in experiment [12] and 2 nM in experiment [14].

B5: ch4E4(N30Q) mIgG1 Agly (antibody, V domains shown)
VH: EVQLVESGGGLVQPGGSLKLSCAASGFNFQISAIHWVRQASGKGLEWVGRIRSKSHNYATLYAASLKGRFTLSRDDSRNTAYLQMSSLQTEDMAVYYCTVLSANYDTFDYWGQGTLVTVSS
VL: SYELTQPPSVSVSPGQTARISCFGDTLPKQYTYWYQQKPGQAPVLVIYKDTERPSGIPERFSGSSSGTTVTLTISGVQAEDEADYYCLSADNSATWVFGGGTKVTVLG
notes: also called ch4E4(N30Q) IgG 1-Agly; mouse chimeric aglycosylated variant of 4E4
Regarding B5, in experiment [10], the half-maximal effective concentration (EC50 (read off the curve)) was approximately 0.04 µg/mL.

B6: chimeric 4E4 (ch4E4), mouse IgG2a/lambda (antibody, V domains shown)
VH: EVQLVESGGGLVQPGGSLKLSCAASGFNFNISAIHWVRQASGKGLEWVGRIRSKSHNYATLYAASLKGRFTLSRDDSRNTAYLQMSSLQTEDMAVYYCTVLSANYDTFDYWGQGTLVTVSS
VL: SYELTQPPSVSVSPGQTARISCFGDTLPKQYTYWYQQKPGQAPVLVIYKDTERPSGIPERFSGSSSGTTVTLTISGVQAEDEADYYCLSADNSATWVFGGGTKVTVLG
modifications: N-glycan on Asn-30 (fully occupied on CHO expression)
notes: also called original, glycosylated antibody
In the case of B6, in experiment [10], the 50% effective concentration (EC50 (read off the curve)) is approximately 0.2 µg/mL.
